The record followed here is paper PMC1540728.

Holding throughout (assay): NMR titration
One data set deals with T1, hnRNP F qRRM2 (Homo sapiens, UniProt P52597 103-194).
T1 sequence: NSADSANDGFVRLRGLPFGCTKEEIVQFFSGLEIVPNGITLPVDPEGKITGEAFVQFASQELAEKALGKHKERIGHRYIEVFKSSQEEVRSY

In the next data set the target is T2, hnRNP F qRRM1-2 (Homo sapiens, UniProt P52597 1-194).
T2 sequence: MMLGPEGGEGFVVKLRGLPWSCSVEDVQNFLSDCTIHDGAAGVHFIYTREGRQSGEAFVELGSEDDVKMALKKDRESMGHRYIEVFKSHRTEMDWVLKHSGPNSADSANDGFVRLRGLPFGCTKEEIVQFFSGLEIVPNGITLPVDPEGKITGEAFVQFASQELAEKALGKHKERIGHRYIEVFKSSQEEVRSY

In a further data set the target is T3, hnRNP F qRRM3 (Homo sapiens, UniProt P52597 277-381).
T3 sequence: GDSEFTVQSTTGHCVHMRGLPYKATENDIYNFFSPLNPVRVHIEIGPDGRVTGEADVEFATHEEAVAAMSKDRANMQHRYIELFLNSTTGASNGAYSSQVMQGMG

As to UGCAUG (ssRNA) [Fox RNA-binding site UGCAUG], the binding result with hnRNP F qRRM2 is “no binding”. Turning to CGGGAUGGGGUA (structured_RNA) [Bcl-x G-tracts 1-2 RNA], the binding result in the data set with hnRNP F qRRM1-2 is listed as “binds”. Turning to GGG (ssRNA) [GGG RNA], the binding result in the data set with hnRNP F qRRM2 is reported as “binds”. In the case of CUGGGGU (structured_RNA) [Bcl-x third G-tract RNA], the binding result in the data set with hnRNP F qRRM3 is listed as “no binding”.
